Paper PMC7699580, “Transmembrane Polar Relay Drives the Allosteric Regulation for ABCG5/G8 Sterol Transporter” (International Journal of Molecular Sciences, 2020)

Substrate: Nc1ncnc2c1ncn2[C@@H]1O[C@H](COP(=O)(O)OP(=O)(O)OP(=O)(O)O)[C@@H](O)[C@H]1O
Assay: colorimetric bismuth citrate phosphate-release ATPase assay
Assay type: biochemical, Homo sapiens
Conditions: E. coli polar lipids, 1.5% sodium cholate, 4.1 mM CHS, Mg2+, 0.1% DDM, pH 7.5, 37 °C
From the text: colorimetric bismuth citrate phosphate-release ATPase assay on ABCG5/G8

Row | Protein | Km | Vmax | kcat | kcat/Km
1 | ABCG5/G8 (Homo sapiens) (protein, full-length heterodimer; ABCG5 C-terminal His6GlyHis6, ABCG8 C-terminal 3C site and CBP (CBP tag and N-glycans kept); Pichia pastoris KM71H; DDM-purified) chain 1: MGDLSSLTPGGSMGLQVNRGSQSSLEGAPATAPEPHSLGILHASYSVSHRVRPWWDITSCRQQWTRQILKDVSLYVESGQIMCILGSSGSGKTTLLDAMSGRLGRAGTFLGEVYVNGRALRREQFQDCFSYVLQSDTLLSSLTVRETLHYTALLAIRRGNPGSFQKKVEAVMAELSLSHVADRLIGNYSLGGISTGERRRVSIAAQLLQDPKVMLFDEPTTGLDCMTANQIVVLLVELARRNRIVVLTIHQPRSELFQLFDKIAILSFGELIFCGTPAEMLDFFNDCGYPCPEHSNPFDFYMDLTSVDTQSKEREIETSKRVQMIESAYKKSAICHKTLKNIERMKHLKTLPMVPFKTKDSPGVFSKLGVLLRRVTRNLVRNKLAVITRLLQNLIMGLFLLFFVLRVRSNVLKGAIQDRVGLLYQFVGATPYTGMLNAVNLFPVLRAVSDQESQDGLYQKWQMMLAYALHVLPFSVVATMIFSSVCYWTLGLHPEVARFGYFSAALLAPHLIGEFLTLVLLGIVQNPNIVNSVVALLSIAGVLVGSGFLRNIQEMPIPFKIISYFTFQKYCSEILVVNEFYGLNFTCGSSNVSVTTNPMCAFTQGIQFIEKTCPGATSRFTMNFLILYSFIPALVILGIVVFKIRDHLISR chain 2: MAGKAAEERGLPKGATPQDTSGLQDRLFSSESDNSLYFTYSGQPNTLEVRDLNYQVDLASQVPWFEQLAQFKMPWTSPSCQNSCELGIQNLSFKVRSGQMLAIIGSSGCGRASLLDVITGRGHGGKIKSGQIWINGQPSSPQLVRKCVAHVRQHNQLLPNLTVRETLAFIAQMRLPRTFSQAQRDKRVEDVIAELRLRQCADTRVGNMYVRGLSGGERRRVSIGVQLLWNPGILILDEPTSGLDSFTAHNLVKTLSRLAKGNRLVLISLHQPRSDIFRLFDLVLLMTSGTPIYLGAAQHMVQYFTAIGYPCPRYSNPADFYVDLTSIDRRSREQELATREKAQSLAALFLEKVRDLDDFLWKAETKDLDEDTCVESSVTPLDTNCLPSPTKMPGAVQQFTTLIRRQISNDFRDLPTLLIHGAEACLMSMTIGFLYFGHGSIQLSFMDTAALLFMIGALIPFNVILDVISKCYSERAMLYYELEDGLYTTGPYFFAKILGELPEHCAYIIIYGMPTYWLANLRPGLQPFLLHFLLVWLVVFCCRIMALAAAALLPTFHMASFFSNALYNSFYLAGGFMINLSSLWTVPAWISKVSFLRWCFEGLMKIQFSRRTYKMPLGNLTIAVSGDKILSVMELDSYPLYAIYLIVIGLSGGFMVLYYVSLRFIKQKPSQDW | 600 ± 70 µM | 0.677 µmol/min/mg | 1.69 ± 0.06 s⁻¹ | 2800 M⁻¹ s⁻¹
2 | ABCG5/G8 (Homo sapiens; Q9H222:E146Q) (protein, full-length heterodimer; ABCG5 C-terminal His6GlyHis6, ABCG8 C-terminal 3C site and CBP (CBP tag and N-glycans kept); Pichia pastoris KM71H; DDM-purified) chain 1: MGDLSSLTPGGSMGLQVNRGSQSSLEGAPATAPEPHSLGILHASYSVSHRVRPWWDITSCRQQWTRQILKDVSLYVESGQIMCILGSSGSGKTTLLDAMSGRLGRAGTFLGEVYVNGRALRREQFQDCFSYVLQSDTLLSSLTVRQTLHYTALLAIRRGNPGSFQKKVEAVMAELSLSHVADRLIGNYSLGGISTGERRRVSIAAQLLQDPKVMLFDEPTTGLDCMTANQIVVLLVELARRNRIVVLTIHQPRSELFQLFDKIAILSFGELIFCGTPAEMLDFFNDCGYPCPEHSNPFDFYMDLTSVDTQSKEREIETSKRVQMIESAYKKSAICHKTLKNIERMKHLKTLPMVPFKTKDSPGVFSKLGVLLRRVTRNLVRNKLAVITRLLQNLIMGLFLLFFVLRVRSNVLKGAIQDRVGLLYQFVGATPYTGMLNAVNLFPVLRAVSDQESQDGLYQKWQMMLAYALHVLPFSVVATMIFSSVCYWTLGLHPEVARFGYFSAALLAPHLIGEFLTLVLLGIVQNPNIVNSVVALLSIAGVLVGSGFLRNIQEMPIPFKIISYFTFQKYCSEILVVNEFYGLNFTCGSSNVSVTTNPMCAFTQGIQFIEKTCPGATSRFTMNFLILYSFIPALVILGIVVFKIRDHLISR chain 2: MAGKAAEERGLPKGATPQDTSGLQDRLFSSESDNSLYFTYSGQPNTLEVRDLNYQVDLASQVPWFEQLAQFKMPWTSPSCQNSCELGIQNLSFKVRSGQMLAIIGSSGCGRASLLDVITGRGHGGKIKSGQIWINGQPSSPQLVRKCVAHVRQHNQLLPNLTVRETLAFIAQMRLPRTFSQAQRDKRVEDVIAELRLRQCADTRVGNMYVRGLSGGERRRVSIGVQLLWNPGILILDEPTSGLDSFTAHNLVKTLSRLAKGNRLVLISLHQPRSDIFRLFDLVLLMTSGTPIYLGAAQHMVQYFTAIGYPCPRYSNPADFYVDLTSIDRRSREQELATREKAQSLAALFLEKVRDLDDFLWKAETKDLDEDTCVESSVTPLDTNCLPSPTKMPGAVQQFTTLIRRQISNDFRDLPTLLIHGAEACLMSMTIGFLYFGHGSIQLSFMDTAALLFMIGALIPFNVILDVISKCYSERAMLYYELEDGLYTTGPYFFAKILGELPEHCAYIIIYGMPTYWLANLRPGLQPFLLHFLLVWLVVFCCRIMALAAAALLPTFHMASFFSNALYNSFYLAGGFMINLSSLWTVPAWISKVSFLRWCFEGLMKIQFSRRTYKMPLGNLTIAVSGDKILSVMELDSYPLYAIYLIVIGLSGGFMVLYYVSLRFIKQKPSQDW | 510 ± 50 µM | 0.167 µmol/min/mg | 0.41 s⁻¹ | 820 M⁻¹ s⁻¹
3 | ABCG5/G8 (Homo sapiens; Q9H221:R543S) (protein, full-length heterodimer; ABCG5 C-terminal His6GlyHis6, ABCG8 C-terminal 3C site and CBP (CBP tag and N-glycans kept); Pichia pastoris KM71H; DDM-purified) chain 1: MGDLSSLTPGGSMGLQVNRGSQSSLEGAPATAPEPHSLGILHASYSVSHRVRPWWDITSCRQQWTRQILKDVSLYVESGQIMCILGSSGSGKTTLLDAMSGRLGRAGTFLGEVYVNGRALRREQFQDCFSYVLQSDTLLSSLTVRETLHYTALLAIRRGNPGSFQKKVEAVMAELSLSHVADRLIGNYSLGGISTGERRRVSIAAQLLQDPKVMLFDEPTTGLDCMTANQIVVLLVELARRNRIVVLTIHQPRSELFQLFDKIAILSFGELIFCGTPAEMLDFFNDCGYPCPEHSNPFDFYMDLTSVDTQSKEREIETSKRVQMIESAYKKSAICHKTLKNIERMKHLKTLPMVPFKTKDSPGVFSKLGVLLRRVTRNLVRNKLAVITRLLQNLIMGLFLLFFVLRVRSNVLKGAIQDRVGLLYQFVGATPYTGMLNAVNLFPVLRAVSDQESQDGLYQKWQMMLAYALHVLPFSVVATMIFSSVCYWTLGLHPEVARFGYFSAALLAPHLIGEFLTLVLLGIVQNPNIVNSVVALLSIAGVLVGSGFLRNIQEMPIPFKIISYFTFQKYCSEILVVNEFYGLNFTCGSSNVSVTTNPMCAFTQGIQFIEKTCPGATSRFTMNFLILYSFIPALVILGIVVFKIRDHLISR chain 2: MAGKAAEERGLPKGATPQDTSGLQDRLFSSESDNSLYFTYSGQPNTLEVRDLNYQVDLASQVPWFEQLAQFKMPWTSPSCQNSCELGIQNLSFKVRSGQMLAIIGSSGCGRASLLDVITGRGHGGKIKSGQIWINGQPSSPQLVRKCVAHVRQHNQLLPNLTVRETLAFIAQMRLPRTFSQAQRDKRVEDVIAELRLRQCADTRVGNMYVRGLSGGERRRVSIGVQLLWNPGILILDEPTSGLDSFTAHNLVKTLSRLAKGNRLVLISLHQPRSDIFRLFDLVLLMTSGTPIYLGAAQHMVQYFTAIGYPCPRYSNPADFYVDLTSIDRRSREQELATREKAQSLAALFLEKVRDLDDFLWKAETKDLDEDTCVESSVTPLDTNCLPSPTKMPGAVQQFTTLIRRQISNDFRDLPTLLIHGAEACLMSMTIGFLYFGHGSIQLSFMDTAALLFMIGALIPFNVILDVISKCYSERAMLYYELEDGLYTTGPYFFAKILGELPEHCAYIIIYGMPTYWLANLRPGLQPFLLHFLLVWLVVFCCSIMALAAAALLPTFHMASFFSNALYNSFYLAGGFMINLSSLWTVPAWISKVSFLRWCFEGLMKIQFSRRTYKMPLGNLTIAVSGDKILSVMELDSYPLYAIYLIVIGLSGGFMVLYYVSLRFIKQKPSQDW | 420 ± 40 µM | 0.151 µmol/min/mg | 0.38 ± 0.01 s⁻¹ | 900 M⁻¹ s⁻¹
4 | ABCG5/G8 (Homo sapiens; Q9H222:A540F) (protein, full-length heterodimer; ABCG5 C-terminal His6GlyHis6, ABCG8 C-terminal 3C site and CBP (CBP tag and N-glycans kept); Pichia pastoris KM71H; DDM-purified) chain 1: MGDLSSLTPGGSMGLQVNRGSQSSLEGAPATAPEPHSLGILHASYSVSHRVRPWWDITSCRQQWTRQILKDVSLYVESGQIMCILGSSGSGKTTLLDAMSGRLGRAGTFLGEVYVNGRALRREQFQDCFSYVLQSDTLLSSLTVRETLHYTALLAIRRGNPGSFQKKVEAVMAELSLSHVADRLIGNYSLGGISTGERRRVSIAAQLLQDPKVMLFDEPTTGLDCMTANQIVVLLVELARRNRIVVLTIHQPRSELFQLFDKIAILSFGELIFCGTPAEMLDFFNDCGYPCPEHSNPFDFYMDLTSVDTQSKEREIETSKRVQMIESAYKKSAICHKTLKNIERMKHLKTLPMVPFKTKDSPGVFSKLGVLLRRVTRNLVRNKLAVITRLLQNLIMGLFLLFFVLRVRSNVLKGAIQDRVGLLYQFVGATPYTGMLNAVNLFPVLRAVSDQESQDGLYQKWQMMLAYALHVLPFSVVATMIFSSVCYWTLGLHPEVARFGYFSAALLAPHLIGEFLTLVLLGIVQNPNIVNSVVALLSIFGVLVGSGFLRNIQEMPIPFKIISYFTFQKYCSEILVVNEFYGLNFTCGSSNVSVTTNPMCAFTQGIQFIEKTCPGATSRFTMNFLILYSFIPALVILGIVVFKIRDHLISR chain 2: MAGKAAEERGLPKGATPQDTSGLQDRLFSSESDNSLYFTYSGQPNTLEVRDLNYQVDLASQVPWFEQLAQFKMPWTSPSCQNSCELGIQNLSFKVRSGQMLAIIGSSGCGRASLLDVITGRGHGGKIKSGQIWINGQPSSPQLVRKCVAHVRQHNQLLPNLTVRETLAFIAQMRLPRTFSQAQRDKRVEDVIAELRLRQCADTRVGNMYVRGLSGGERRRVSIGVQLLWNPGILILDEPTSGLDSFTAHNLVKTLSRLAKGNRLVLISLHQPRSDIFRLFDLVLLMTSGTPIYLGAAQHMVQYFTAIGYPCPRYSNPADFYVDLTSIDRRSREQELATREKAQSLAALFLEKVRDLDDFLWKAETKDLDEDTCVESSVTPLDTNCLPSPTKMPGAVQQFTTLIRRQISNDFRDLPTLLIHGAEACLMSMTIGFLYFGHGSIQLSFMDTAALLFMIGALIPFNVILDVISKCYSERAMLYYELEDGLYTTGPYFFAKILGELPEHCAYIIIYGMPTYWLANLRPGLQPFLLHFLLVWLVVFCCRIMALAAAALLPTFHMASFFSNALYNSFYLAGGFMINLSSLWTVPAWISKVSFLRWCFEGLMKIQFSRRTYKMPLGNLTIAVSGDKILSVMELDSYPLYAIYLIVIGLSGGFMVLYYVSLRFIKQKPSQDW | 580 ± 80 µM | 0.101 µmol/min/mg | 0.25 ± 0.01 s⁻¹ | 430 M⁻¹ s⁻¹
